Key:
Assay in all cases: pull-down; GST-fused Clr4 (0.2 nmol) on Glutathione Magnetic Agarose Beads, 0.2 nmol MBP-fused Clr4 in 200 μl of 10 mM Tris-HCl pH 7.5, 150 mM NaCl, 0.1 mM EDTA, 0.1% Triton X-100, 4°C, 2 h; SDS-PAGE and CBB staining; also at 0 mM NaCl and with pericentromeric RNA added
Settings in all cases: both partners purified
[1] = biological target: T1, MBP-fused catalytic domain of Clr4 (MBP-Clr4-C, amino acids 192-490) (S. pombe, UniProt O60016 192-490)
T1 construct: Clr4, S. pombe, C-terminal catalytic domain, amino acids 192-490; cloned into pMALc2; source: E. coli BL21 (DE3), purified (Amylose Resin, dialysed)

MBP-Clr4-C 472–475A = biological target: T2, MBP-Clr4-C 472–475A (S. pombe, UniProt O60016 192-490, 472–475A)
T2 construct: source: E. coli BL21 (DE3), purified (Amylose Resin, dialysed)

MBP-Clr4-C 472–475E = biological target: T3, MBP-Clr4-C 472–475E (S. pombe, UniProt O60016 192-490, 472–475E)
T3 construct: source: E. coli BL21 (DE3), purified (Amylose Resin, dialysed)
T3 sequence (O60016 other isoform, or with tags, fused parts or gaps 472–475E | 472–475E): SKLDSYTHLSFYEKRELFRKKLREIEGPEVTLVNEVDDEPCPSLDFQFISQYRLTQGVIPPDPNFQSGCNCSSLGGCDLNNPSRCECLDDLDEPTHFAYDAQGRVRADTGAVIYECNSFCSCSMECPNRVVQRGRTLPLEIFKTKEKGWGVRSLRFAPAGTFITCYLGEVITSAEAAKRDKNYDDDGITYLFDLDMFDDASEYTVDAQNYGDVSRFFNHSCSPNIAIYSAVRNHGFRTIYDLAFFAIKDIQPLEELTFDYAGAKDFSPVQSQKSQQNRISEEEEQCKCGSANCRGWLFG

T1 sequence (O60016 192-490): as the sequence (O60016 other isoform, or with tags, fused parts or gaps 472–475E | 472–475E) above, with E281K, E282L, E283R, E284R counted along it
T2 sequence (O60016 other isoform, or with tags, fused parts or gaps 472–475A | 472–475A): as the sequence (O60016 other isoform, or with tags, fused parts or gaps 472–475E | 472–475E) above, with E281A, E282A, E283A, E284A counted along it

binding result [1] | binding result (MBP-Clr4-C 472–475A) | binding result (MBP-Clr4-C 472–475E) | Binder
binds | – | – | GST-Clr4-N3 (domain or fragment, S. pombe, UniProt O60016 1-126, looked up, Clr4, S. pombe, residues 1-126; source: E. coli BL21 (DE3), purified (Glutathione Sepharose 4B, anion exchange SOURCE 15Q)) MSPKQEEYEVERIVDEKLDRNGAVKLYRIRWLNYSSRSDTWEPPENLSGCSAVLAEWKRRKRRLKGSNSDSDSPHHASNPHPNSRQKHQHQTSKSVPRSQRFSRELNVKKENKKVFSSQTTKRQSR
binds | binds | binds | GST-fused Clr4 N-terminus (GST-Clr4-N, amino acids 1-191) (domain or fragment, S. pombe, UniProt O60016 1-191, looked up, Clr4, S. pombe, N-terminus comprising the CD and IDR, amino acids 1-191; cloned into pGEX6P-3; also called wild-type GST-Clr4-N; GST-Clr4-N2 (label worked out); source: E. coli BL21 (DE3), purified (Glutathione Sepharose 4B, anion exchange SOURCE 15Q)) MSPKQEEYEVERIVDEKLDRNGAVKLYRIRWLNYSSRSDTWEPPENLSGCSAVLAEWKRRKRRLKGSNSDSDSPHHASNPHPNSRQKHQHQTSKSVPRSQRFSRELNVKKENKKVFSSQTTKRQSRKQSTALTTNDTSIILDDSLHTNSKKLGKTRNEVKEESQKRELVSNSIKEATSPKTSSILTKPRNP
